{"source": "patent US20250368745A1", "about": "(published 2025)", "binders": {"B1": {"name": "SA301a HC-G55A (antibody, name in Kabat numbering, V domains shown)", "VH": "QVQLQESGPGLVKPSQTLSLTCTVSGYSITSDYNSHWIRQPPGKGLEWIGYIHYSASTNYNPSLKSRVTISRDTSKNQFSLKLSSVTAADTAVYYCARNYGSIYVNYFDYWGQGTLVTVSS", "VL": "EIVLTQSPATLSLSPGERATLSCSASSSVSYMYWYQQKPGQAPRPLIYRTSNLASGIPARFSGSGSGTDFTLTISSLEPEDFAVYYCQQYHSYPTFGGGTKVEIK", "notes": "IgG1 kappa"}, "B2": {"name": "SA301a HC-S56H (antibody, name in Kabat numbering, V domains shown)", "VH": "B1 VH with A56G, S57H", "VL": "B1 VL", "notes": "IgG1 kappa"}, "B3": {"name": "SA301a HC-S54D (antibody, name in Kabat numbering, V domains shown)", "VH": "B1 VH with S55D, A56G", "VL": "B1 VL", "notes": "IgG1 kappa"}, "B4": {"name": "SA301a HC-G55F (antibody, name in Kabat numbering, V domains shown)", "VH": "B1 VH with A56F", "VL": "B1 VL", "notes": "IgG1 kappa"}, "B5": {"name": "SA301a HC-S54A (antibody, name in Kabat numbering, V domains shown)", "VH": "B1 VH with S55A, A56G", "VL": "B1 VL", "notes": "IgG1 kappa"}, "B6": {"name": "SA301a HC-N58I (antibody, name in Kabat numbering, V domains shown)", "VH": "B1 VH with A56G, N59I", "VL": "B1 VL", "notes": "IgG1 kappa"}, "B7": {"name": "SA301a HC-S56E (antibody, name in Kabat numbering, V domains shown)", "VH": "B1 VH with A56G, S57E", "VL": "B1 VL", "notes": "IgG1 kappa"}, "B8": {"name": "SA301a HC-S56F (antibody, name in Kabat numbering, V domains shown)", "VH": "B1 VH with A56G, S57F", "VL": "B1 VL", "notes": "IgG1 kappa"}, "B9": {"name": "SA301a HC-S56A (antibody, name in Kabat numbering, V domains shown)", "VH": "B1 VH with A56G, S57A", "VL": "B1 VL", "notes": "IgG1 kappa"}, "B10": {"name": "SA301a HC-S56L (antibody, name in Kabat numbering, V domains shown)", "VH": "B1 VH with A56G, S57L", "VL": "B1 VL", "notes": "IgG1 kappa"}, "B11": {"name": "SA301a HC-N58P (antibody, name in Kabat numbering, V domains shown)", "VH": "B1 VH with A56G, N59P", "VL": "B1 VL", "notes": "IgG1 kappa"}, "B12": {"name": "SA301a HC-G55S (antibody, name in Kabat numbering, V domains shown)", "VH": "B1 VH with A56S", "VL": "B1 VL", "notes": "IgG1 kappa"}, "B13": {"name": "SA301a HC-G55Y (antibody, name in Kabat numbering, V domains shown)", "VH": "B1 VH with A56Y", "VL": "B1 VL", "notes": "IgG1 kappa"}, "B14": {"name": "SA301a HC-N58T (antibody, name in Kabat numbering, V domains shown)", "VH": "B1 VH with A56G, N59T", "VL": "B1 VL", "notes": "IgG1 kappa"}, "B15": {"name": "SA301a HC-G55R (antibody, name in Kabat numbering, V domains shown)", "VH": "B1 VH with A56R", "VL": "B1 VL", "notes": "IgG1 kappa"}, "B16": {"name": "SA301a HC-S56I (antibody, name in Kabat numbering, V domains shown)", "VH": "B1 VH with A56G, S57I", "VL": "B1 VL", "notes": "IgG1 kappa"}, "B17": {"name": "SA301a HC-N58Y (antibody, name in Kabat numbering, V domains shown)", "VH": "B1 VH with A56G, N59Y", "VL": "B1 VL", "notes": "IgG1 kappa"}, "B18": {"name": "SA301a HC-N58Q (antibody, name in Kabat numbering, V domains shown)", "VH": "B1 VH with A56G, N59Q", "VL": "B1 VL", "notes": "IgG1 kappa"}, "B19": {"name": "SA301a HC-N58A (antibody, name in Kabat numbering, V domains shown)", "VH": "B1 VH with A56G, N59A", "VL": "B1 VL", "notes": "IgG1 kappa"}, "B20": {"name": "SA301a HC-G55E (antibody, name in Kabat numbering, V domains shown)", "VH": "B1 VH with A56E", "VL": "B1 VL", "notes": "IgG1 kappa"}, "B21": {"name": "SA301a HC-G55M (antibody, name in Kabat numbering, V domains shown)", "VH": "B1 VH with A56M", "VL": "B1 VL", "notes": "IgG1 kappa"}, "B22": {"name": "SA301a HC-G55D (antibody, name in Kabat numbering, V domains shown)", "VH": "B1 VH with A56D", "VL": "B1 VL", "notes": "IgG1 kappa"}, "B23": {"name": "SA301a HC-G55V (antibody, name in Kabat numbering, V domains shown)", "VH": "B1 VH with A56V", "VL": "B1 VL", "notes": "IgG1 kappa"}, "B24": {"name": "SA301a HC-G55H (antibody, name in Kabat numbering, V domains shown)", "VH": "B1 VH with A56H", "VL": "B1 VL", "notes": "IgG1 kappa"}, "B25": {"name": "SA301a HC-S54F (antibody, name in Kabat numbering, V domains shown)", "VH": "B1 VH with S55F, A56G", "VL": "B1 VL", "notes": "IgG1 kappa"}, "B26": {"name": "SA301a HC-N58R (antibody, name in Kabat numbering, V domains shown)", "VH": "B1 VH with A56G, N59R", "VL": "B1 VL", "notes": "IgG1 kappa"}, "B27": {"name": "SA301a HC-S56D (antibody, name in Kabat numbering, V domains shown)", "VH": "B1 VH with A56G, S57D", "VL": "B1 VL", "notes": "IgG1 kappa"}, "B28": {"name": "SA301a HC-N58E (antibody, name in Kabat numbering, V domains shown)", "VH": "B1 VH with A56G, N59E", "VL": "B1 VL", "notes": "IgG1 kappa"}, "B29": {"name": "SA301a HC-S56K (antibody, name in Kabat numbering, V domains shown)", "VH": "B1 VH with A56G, S57K", "VL": "B1 VL", "notes": "IgG1 kappa"}, "B30": {"name": "SA301a HC-G55T (antibody, name in Kabat numbering, V domains shown)", "VH": "B1 VH with A56T", "VL": "B1 VL", "notes": "IgG1 kappa"}, "B31": {"name": "SA301a HC-N58H (antibody, name in Kabat numbering, V domains shown)", "VH": "B1 VH with A56G, N59H", "VL": "B1 VL", "notes": "IgG1 kappa"}, "B32": {"name": "SA301a HC-N58M (antibody, name in Kabat numbering, V domains shown)", "VH": "B1 VH with A56G, N59M", "VL": "B1 VL", "notes": "IgG1 kappa"}, "B33": {"name": "SA301a HC-N58D (antibody, name in Kabat numbering, V domains shown)", "VH": "B1 VH with A56G, N59D", "VL": "B1 VL", "notes": "IgG1 kappa"}, "B34": {"name": "SA301a HC-N58S (antibody, name in Kabat numbering, V domains shown)", "VH": "B1 VH with A56G, N59S", "VL": "B1 VL", "notes": "IgG1 kappa"}, "B35": {"name": "SA301a HC-S56G (antibody, name in Kabat numbering, V domains shown)", "VH": "B1 VH with A56G, S57G", "VL": "B1 VL", "notes": "IgG1 kappa"}, "B36": {"name": "SA301a HC-G55L (antibody, name in Kabat numbering, V domains shown)", "VH": "B1 VH with A56L", "VL": "B1 VL", "notes": "IgG1 kappa"}, "B37": {"name": "SA301a HC-N58K (antibody, name in Kabat numbering, V domains shown)", "VH": "B1 VH with A56G, N59K", "VL": "B1 VL", "notes": "IgG1 kappa"}, "B38": {"name": "SA301a HC-N58V (antibody, name in Kabat numbering, V domains shown)", "VH": "B1 VH with A56G, N59V", "VL": "B1 VL", "notes": "IgG1 kappa"}, "B39": {"name": "SA301a HC-N58G (antibody, name in Kabat numbering, V domains shown)", "VH": "B1 VH with A56G, N59G", "VL": "B1 VL", "notes": "IgG1 kappa"}, "B40": {"name": "SA301a HC-G55Q (antibody, name in Kabat numbering, V domains shown)", "VH": "B1 VH with A56Q", "VL": "B1 VL", "notes": "IgG1 kappa"}, "B41": {"name": "SA301a HC-G55K (antibody, name in Kabat numbering, V domains shown)", "VH": "B1 VH with A56K", "VL": "B1 VL", "notes": "IgG1 kappa"}, "B42": {"name": "SA301a LC-T96K (antibody, V domains shown)", "VH": "B1 VH with A56G", "VL": "B1 VL with T95K"}, "B43": {"name": "SA301a LC-T96E (antibody, V domains shown)", "VH": "B1 VH with A56G", "VL": "B1 VL with T95E"}, "B44": {"name": "SA301a LC-T96P (antibody, V domains shown)", "VH": "B1 VH with A56G", "VL": "B1 VL with T95P"}, "B45": {"name": "SA301a LC-T96M (antibody, V domains shown)", "VH": "B1 VH with A56G", "VL": "B1 VL with T95M"}, "B46": {"name": "SA301a LC-T96V (antibody, V domains shown)", "VH": "B1 VH with A56G", "VL": "B1 VL with T95V"}, "B47": {"name": "SA301a LC-T96A (antibody, V domains shown)", "VH": "B1 VH with A56G", "VL": "B1 VL with T95A"}}, "note": "Changes are numbered by the printed parent chain. Numbers in names are those of the source."}
{"molecular_target": "T1, human IL-18BP (human, UniProt O95998 31-194)", "T1 construct": "UniProt printed as 095998; also called hIL-18BP", "T1 sequence": "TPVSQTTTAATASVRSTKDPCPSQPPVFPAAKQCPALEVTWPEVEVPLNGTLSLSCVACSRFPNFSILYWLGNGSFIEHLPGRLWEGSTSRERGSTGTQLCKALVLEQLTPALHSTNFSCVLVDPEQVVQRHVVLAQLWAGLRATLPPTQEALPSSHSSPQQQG", "assay": "BLI, apparent KD", "units": {"Kd": "nM"}}
{"binder": "B1", "Kd": 0.75}
{"binder": "B2", "Kd": 0.55}
{"binder": "B3", "Kd": 0.22}
{"binder": "B4", "Kd": 1.17}
{"binder": "B5", "Kd": 0.11}
{"binder": "B6", "Kd": 0.27}
{"binder": "B7", "Kd": 0.48}
{"binder": "B8", "Kd": 0.7}
{"binder": "B9", "Kd": 0.2}
{"binder": "B10", "Kd": 0.36}
{"binder": "B11", "Kd": 0.41}
{"binder": "B12", "Kd": 0.51}
{"binder": "B13", "Kd": 2.33}
{"binder": "B14", "Kd": 0.47}
{"binder": "B15", "Kd": 0.75}
{"binder": "B16", "Kd": 0.48}
{"binder": "B17", "Kd": 0.41}
{"binder": "B18", "Kd": 0.62}
{"binder": "B19", "Kd": 0.64}
{"binder": "B20", "Kd": 0.4}
{"binder": "B21", "Kd": 0.84}
{"binder": "B22", "Kd": 1.37}
{"binder": "B23", "Kd": 0.44}
{"binder": "B24", "Kd": 1.31}
{"binder": "B25", "Kd": 0.56}
{"binder": "B26", "Kd": 0.46}
{"binder": "B27", "Kd": 0.62}
{"binder": "B28", "Kd": 2.5}
{"binder": "B29", "Kd": 0.64}
{"binder": "B30", "Kd": 1}
{"binder": "B31", "Kd": 0.31}
{"binder": "B32", "Kd": 0.23}
{"binder": "B33", "Kd": 4.51}
{"binder": "B34", "Kd": 1.37}
{"binder": "B35", "Kd": 0.46}
{"binder": "B36", "Kd": 1.72}
{"binder": "B37", "Kd": 0.34}
{"binder": "B38", "Kd": 0.44}
{"binder": "B39", "Kd": 4.39}
{"binder": "B40", "Kd": 0.79}
{"binder": "B41", "Kd": 1.04}
{"molecular_target": "T1, human IL-18BP", "assay": "BLI, apparent KD", "remark": "another data set of the same source", "units": {"Kd": "nM"}}
{"binder": "B42", "Kd": 0.05}
{"binder": "B43", "Kd": 0.31}
{"binder": "B44", "Kd": 0.26}
{"binder": "B45", "Kd": 0.19}
{"binder": "B46", "Kd": 0.21}
{"binder": "B47", "Kd": 0.17}
